According to US20250289894A1 (MORPHIC THERAPEUTIC, published 2025):
Positions count from the first letter of the chain named. Where two headings read alike, the source gives them in different places. One block for each molecule: values may come before it.

Legend:
Human α7β1 (human) [1] = target: Human α7β1 (human) (UniProt Q13683); test: cell-based or functional assay
Human α7β1 (human) [2] = target: Human α7β1 (human) (UniProt Q13683); test: cell-based or functional assay; remark: listed apart in the source
Human a7 Genu Calf 1-2 [3] = target: T1, Human a7 Genu Calf 1-2 (human, UniProt Q13683 679-1078, limits assumed); test: SPR
T1 construct: domain: Genu Calf 1-2
T1 sequence (looked up): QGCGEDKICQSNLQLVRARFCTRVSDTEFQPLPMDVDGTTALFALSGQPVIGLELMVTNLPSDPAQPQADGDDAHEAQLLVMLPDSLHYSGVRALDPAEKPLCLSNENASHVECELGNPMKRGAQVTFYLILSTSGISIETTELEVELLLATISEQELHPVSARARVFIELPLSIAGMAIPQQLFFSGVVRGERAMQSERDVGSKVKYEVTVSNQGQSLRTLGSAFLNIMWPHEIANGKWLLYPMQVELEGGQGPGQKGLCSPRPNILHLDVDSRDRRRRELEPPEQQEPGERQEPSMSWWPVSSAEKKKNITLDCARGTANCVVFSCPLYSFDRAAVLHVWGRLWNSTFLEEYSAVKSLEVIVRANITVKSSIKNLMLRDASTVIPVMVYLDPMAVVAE

Human a7b1 Ecto (X2B) [4] = target: T2, Human a7b1 Ecto (X2B) (human, UniProt P05556 21-728); test: SPR
T2 construct: extracellular domain
Target sequence in this assay (P05556 21-728): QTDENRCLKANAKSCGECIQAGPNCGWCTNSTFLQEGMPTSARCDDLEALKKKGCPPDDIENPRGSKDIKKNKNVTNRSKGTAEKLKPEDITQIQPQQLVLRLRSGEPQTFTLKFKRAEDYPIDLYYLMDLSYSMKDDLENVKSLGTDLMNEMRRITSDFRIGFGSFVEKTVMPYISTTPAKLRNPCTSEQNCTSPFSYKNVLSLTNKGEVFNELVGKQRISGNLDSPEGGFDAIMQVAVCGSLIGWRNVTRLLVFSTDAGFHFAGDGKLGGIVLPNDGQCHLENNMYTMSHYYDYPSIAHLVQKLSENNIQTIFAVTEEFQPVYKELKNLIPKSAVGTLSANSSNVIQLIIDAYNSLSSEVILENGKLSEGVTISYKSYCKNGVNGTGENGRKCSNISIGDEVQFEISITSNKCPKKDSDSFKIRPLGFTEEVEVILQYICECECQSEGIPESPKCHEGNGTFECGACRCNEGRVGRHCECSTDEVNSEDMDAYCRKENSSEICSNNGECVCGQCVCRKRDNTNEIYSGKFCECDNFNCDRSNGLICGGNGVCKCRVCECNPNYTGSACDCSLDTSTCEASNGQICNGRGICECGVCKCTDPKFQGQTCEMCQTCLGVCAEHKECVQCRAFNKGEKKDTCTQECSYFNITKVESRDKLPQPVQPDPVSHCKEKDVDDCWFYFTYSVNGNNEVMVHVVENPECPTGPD

[5] = target: Human α7β1 (human), Q13683; test: cell-based or functional assay
Human a7 Genu Calf 1-2 [6] = target: T1, Human a7 Genu Calf 1-2; test: SPR; remark: listed apart in the source
Human a7b1 Ecto (X2B) [7] = target: T2, Human a7b1 Ecto (X2B); test: SPR; remark: listed apart in the source

EC50 (nM), ECIS, DMD-1 myoblast cells (control row) (Human α7β1 (human) [1]): 38.1 nM
EC50 (nM), ECIS, DMD-2 myoblast cells (control row) (Human α7β1 (human) [1]): 8.7 nM
EC50 (nM), ECIS, Non-DMD myoblast cells (control row) (Human α7β1 (human) [1]): 8.1 nM
Emax (% of RefAb1), ECIS, DMD-1 myoblast cells (control row) (Human α7β1 (human) [1]): 59 % of RefAb1
Emax (% of RefAb1), ECIS, DMD-2 myoblast cells (control row) (Human α7β1 (human) [1]): 39 % of RefAb1
Emax (% of RefAb1), ECIS, Non-DMD myoblast cells (control row) (Human α7β1 (human) [1]): 35 % of RefAb1
Molecule: Isotype Control (antibody)

EC50 (nm), a7b1 activation assay (Human α7β1 (human) [2]): 1.97 nM
EC50 (ug/mL), a7b1 activation assay (Human α7β1 (human) [2]): 0.3 µg/mL
Emax (F.C.), a7b1 activation assay (Human α7β1 (human) [2]): 2.09 F.C.
EC50 (nM), a7b1 activation assay (Human α7β1 (human) [1]): 2.07 nM
EC50 (ug/mL), a7b1 activation assay (Human α7β1 (human) [1]): 0.31 µg/mL
Emax (% TS2/16), a7b1 activation assay (Human α7β1 (human) [1]): 100 % TS2/16
Emax (F.C.), a7b1 activation assay (Human α7β1 (human) [1]): 2.34 F.C.
Molecule: TS2/16 antibody

Kd (Human a7 Genu Calf 1-2 [3]): 1.3 nM
Kd (Human a7b1 Ecto (X2B) [4]): 7.3 nM
B1: Ab28 (antibody, human IgG1, lambda, L234A L235A)
heavy: EVQLVESGGGLVKPGGSLRLSCAASGFTFSSYTMNWVRQAPGKGLEWVSSISIVGNYIYYADSLKGRFTISRDNAKNSLYLQMNSLRAEDTAVYYCARRKWEHDAFDIWGQGTMVTVSSASTKGPSVFPLAPSSKSTSGGTAALGCLVKDYFPEPVTVSWNSGALTSGVHTFPAVLQSSGLYSLSSVVTVPSSSLGTQTYICNVNHKPSNTKVDKKVEPKSCDKTHTCPPCPAPEAAGGPSVFLFPPKPKDTLMISRTPEVTCVVVDVSHEDPEVKFNWYVDGVEVHNAKTKPREEQYNSTYRVVSVLTVLHQDWLNGKEYKCKVSNKALAAPIEKTISKAKGQPREPQVYTLPPSRDELTKNQVSLTCLVKGFYPSDIAVEWESNGQPENNYKTTPPVLDSDGSFFLYSKLTVDKSRWQQGNVFSCSVLHEALHSHYTQKSLSLSPG
light: SSELTQDPAVSVALGQTVRITCQGDSLRSYYASWYQQKPGQAPVLVIYGKNNRPSGIPDRFSGSSSGNTASLTITGAQAEDEADFYCTSRDNSGNHVVFGGGTKLTVLGQPKAAPSVTLFPPSSEELQANKATLVCLISDFYPGAVTVAWKADSSPVKAGVETTTPSKQSNNKYAASSYLSLTPEQWKSHKSYSCQVTHEGSTVEKTVAPTECS

Kd (Human a7 Genu Calf 1-2 [3]): 3.6 nM
Kd (Human a7b1 Ecto (X2B) [4]): 8.9 nM
B2: Ab29 (antibody, human IgG1, lambda, L234A L235A)
heavy: B1 heavy with M254Y, S256T, T258E, L430M, S436N
light: B1 light

EC50 (nM), a7b1 activation assay [5]: 1.86 nM
EC50 (ug/mL), a7b1 activation assay [5]: 0.28 µg/mL
Emax (% TS2/16), a7b1 activation assay [5]: 97.9 % TS2/16
Emax (F.C.), a7b1 activation assay (9EG7 staining, human iPSC cardiomyocytes) [5]: 2.29 F.C.
B3: Ab24/Ab25 (antibody, V domains shown)
VH: EVQLVQSGAEVKKPGSSVKVSCKASGYSFTRYWMHWVRQAPGQGLEWIGKIDPSDSETRLNQEFRDRATLTVDKSTSTAYMELSSLRSEDTAVYYCARGGYFGREWYYDVWGQGTLVTVSS
VL: DIVMTQSPLSLPVTPGEPASISCRSSQSLVHRNGNTYLHWYLQKPGQSPQLLIYEVSNRAAGVPDRFSGSGSGTDFTLKISRVEAEDVGVYFCSQSTHVPWTFGGGTKLEIK

EC50 (nm), a7b1 activation assay [5]: 2.88 nM
EC50 (ug/mL), a7b1 activation assay [5]: 0.43 µg/mL
Emax (% TS2/16), a7b1 activation assay [5]: 86.3 % TS2/16
Emax (F.C.), a7b1 activation assay [5]: 1.8 F.C.
B4: Ab26/Ab27 (antibody, V domains shown)
VH: B3 VH with R104E, Y108H
VL: B3 VL with A60F, A61T, S94A, H98Q, V99L, W101Y

Kd (Human a7 Genu Calf 1-2 [6]): 0.57 nM
Kd (Human a7b1 Ecto (X2B) [7]): 3.99 nM
B5: Ab30 (antibody, human IgG1, V domains shown)
VH: B3 VH with R104E, E105G, Y108H
VL: B3 VL with N58K, A61S, S94A, T97I, H98Q

Kd (Human a7 Genu Calf 1-2 [6]): 1.53 nM
B6: Ab32 (antibody, human IgG1, V domains shown)
VH: B3 VH with R104E, E105Q, Y108H
VL: B3 VL with A61S

Kd (Human a7 Genu Calf 1-2 [6]): 0.94 nM
B7: Ab40 (antibody, human IgG1, V domains shown)
VH: B3 VH with R104E, Y108H
VL: B3 VL with V56G, N58K, A60F, A61S

Kd (Human a7 Genu Calf 1-2 [6]): 1.35 nM
B8: Ab34 (antibody, human IgG1, V domains shown)
VH: B3 VH with R104E, E105T, Y108H
VL: B3 VL with N58H, A61S

Kd (Human a7 Genu Calf 1-2 [6]): 2.88 nM
B9: Ab33 (antibody, human IgG1, V domains shown)
VH: B3 VH with R104V, E105G, Y108N
VL: B3 VL with A60V, A61P

Kd (Human a7 Genu Calf 1-2 [6]): 5.7 nM
B10: Ab42 (antibody, human IgG1, V domains shown)
VH: B3 VH with E105Q, Y108F
VL: B3 VL with V56G, N58K, A60F, A61S, S94A, H98Q, V99L, W101Y

Kd (Human a7 Genu Calf 1-2 [6]): 16.4 nM
Kd (Human a7b1 Ecto (X2B) [7]): 63.7 nM
B11: AB-P (antibody, V domains shown)
VH: B3 VH with E1Q, R104E, E105G, Y108F
VL: B3 VL with I2V, E55K, A60F, A61S

Kd (Human a7 Genu Calf 1-2 [6]): 4.44 nM
B12: Ab38 (antibody, human IgG1, V domains shown)
VH: B3 VH with R104E, Y108N
VL: B3 VL with E55K, A61S

Kd (Human a7 Genu Calf 1-2 [6]): 0.71 nM
Kd (Human a7b1 Ecto (X2B) [7]): 3.88 nM
B13: Ab41 (antibody, human IgG1, V domains shown)
VH: B3 VH with R104E, E105Q, Y108H
VL: B3 VL with N58K, A60F, A61S, S94A, T97I, H98Q

Kd (Human a7 Genu Calf 1-2 [6]): 1.43 nM
B14: Ab37 (antibody, human IgG1, V domains shown)
VH: B3 VH with R104E, E105K, Y108H
VL: B3 VL with E55G, A60F, S94A, H98Q, V99L, W101Y

Kd (Human a7 Genu Calf 1-2 [6]): 0.54 nM
Kd (Human a7b1 Ecto (X2B) [7]): 4.47 nM
B15: Ab35 (antibody, human IgG1, V domains shown)
VH: B3 VH with R104E, E105N, Y108H
VL: B3 VL with A60Y, A61S, S94A, T97I, H98Q

Kd (Human a7 Genu Calf 1-2 [6]): 2.53 nM
B16: Ab31 (antibody, human IgG1, V domains shown)
VH: B3 VH with E105Q, Y108F
VL: B3 VL with A61S

Kd (Human a7 Genu Calf 1-2 [6]): 1.33 nM
B17: Ab36 (antibody, human IgG1, V domains shown)
VH: B3 VH with R104E, E105K, Y108H
VL: B3 VL with N58H, A60F, A61P, S94A, H98Q, V99L, W101Y

Kd (Human a7 Genu Calf 1-2 [6]): 1.57 nM
B18: Ab39 (antibody, human IgG1, V domains shown)
VH: B3 VH with R104E, Y108H
VL: B3 VL with E55K, A61S

Kd (Human a7 Genu Calf 1-2 [6]): 0.1 nM
Kd (Human a7b1 Ecto (X2B) [7]): 2.4 nM
B19: Ab24 (antibody, human IgG1, kappa, L234A L235A)
heavy: EVQLVQSGAEVKKPGSSVKVSCKASGYSFTRYWMHWVRQAPGQGLEWIGKIDPSDSETRLNQEFRDRATLTVDKSTSTAYMELSSLRSEDTAVYYCARGGYFGREWYYDVWGQGTLVTVSSASTKGPSVFPLAPSSKSTSGGTAALGCLVKDYFPEPVTVSWNSGALTSGVHTFPAVLQSSGLYSLSSVVTVPSSSLGTQTYICNVNHKPSNTKVDKKVEPKSCDKTHTCPPCPAPEAAGGPSVFLFPPKPKDTLMISRTPEVTCVVVDVSHEDPEVKFNWYVDGVEVHNAKTKPREEQYNSTYRVVSVLTVLHQDWLNGKEYKCKVSNKALAAPIEKTISKAKGQPREPQVYTLPPSRDELTKNQVSLTCLVKGFYPSDIAVEWESNGQPENNYKTTPPVLDSDGSFFLYSKLTVDKSRWQQGNVFSCSVLHEALHSHYTQKSLSLSPG
light: DIVMTQSPLSLPVTPGEPASISCRSSQSLVHRNGNTYLHWYLQKPGQSPQLLIYEVSNRAAGVPDRFSGSGSGTDFTLKISRVEAEDVGVYFCSQSTHVPWTFGGGTKLEIKRTVAAPSVFIFPPSDEQLKSGTASVVCLLNNFYPREAKVQWKVDNALQSGNSQESVTEQDSKDSTYSLSSTLTLSKADYEKHKVYACEVTHQGLSSPVTKSFNRGEC

Kd (Human a7 Genu Calf 1-2 [6]): 0.3 nM
Kd (Human a7b1 Ecto (X2B) [7]): 2.2 nM
B20: Ab26 (antibody, human IgG1, kappa, L234A L235A, V domains shown)
VH: B3 VH with R104E, Y108H
VL: DIVMTQSPLSLPVTPGEPASISCRSSQSLVHRNGNTYLHWYLQKPGQSPQLLIYEVSNRFTGVPDRFSGSGSGTDFTLKISRVEAEDVGVYFCAQSTQLPYTFGGGTKLEIKR

Kd (Human a7 Genu Calf 1-2 [6]): 0.3 nM
Kd (Human a7b1 Ecto (X2B) [7]): 3.4 nM
B21: Ab25 (antibody, human IgG1, kappa, L234A L235A)
heavy: B19 heavy with M256Y, S258T, T260E, L432M, S438N
light: B19 light
notes: same variable domains as Ab24
